In patent publication US11708423B2, “Chimeric engulfment receptor molecules and methods of use” (CERO THERAPEUTICS, INC., priority 2017, dated 2023):

B1: CER31−HPV16 E7 TCR: tandem expression cassette: CER31, T2A peptide, HPV16 E7 specific TCR; SEQ ID NO:170 (protein)
chain: MSKGLLLLWLVTELWWLYLTPAASEDTIIGFLGQPVTLPCHYLSWSQSRNSMCWGKGSCPNSKCNAELLRTDGTRIISRKSTKYTLLGKVQFGEVSLTISNTNRGDSGVYCCRIEVPGWFNDVKKNVRLELRRATTTKKPTTTTRPTTTPYVTTTTPELLPTTVMTTSVLPTTTPPQTLATTAFSTAVTTCPSTTPGSFSQETTKGSAFTTESETLPASNHSQRSMMTISTDIAVLRPTGSNPGILPSTSQLTTQKTTLTTSESLQKTTKSHQINSRQTILIIACCVGFVLMVLLFLAFLMESSKKMDSPGALQTNPPLKLHTDRSAGTPVFVPEQGGYKEKFVKTVEDKYKCEKCHLVLCSPKQTECGHRFCESCMAALLSSSSPKCTACQESIVKDKVFKDNCCKREILALQIYCRNESRGCAEQLMLGHLLVHLKNDCHFEELPCVRPDCKEKVLRKDLRDHVEKACKYREATCSHCKSQVPMIALQKHEDTDCPCVVVSCPHKCSVQTLLRSELSAHLSECVNAPSTCSFKRYGCVFQGTNQQIKAHEASSAVQHVNLLKEWSNSLEKKVLEGGGEGRGSLLTCGDVEENPGPMAPGLLCWALLCLLGAGLVDAGVTQSPTHLIKTRGQQVTLRCSPKSGHDTVSWYQQALGQGPQFIFQYYEEEERQRGNFPDRFSGHQFPNYSSELNVNALLLGDSALYLCASSLGWRGGRYNEQFFGPGTRLTVLEDLRNVTPPKVSLFEPSKAEIANKQKATLVCLARGFFPDHVELSWWVNGKEVHSGVCTDPQAYKESNYSYCLSSRLRVSATFWHNPRNHFRCQVQFHGLSEEDKWPEGSPKPVTQNISAEAWGRADCGITSASYQQGVLSATILYEILLGKATLYAVLVSTLVVMAMVKRKNSRAKRSGSGATNFSLLKQAGDVEENPGPMWGVFLLYVSMKMGGTTGQNIDQPTEMTATEGAIVQINCTYQTSGFNGLFWYQQHAGEAPTFLSYNVLDGLEEKGRFSSFLSRSKGYSYLLLKELQMKDSASYLCASVDGNNRLAFGKGNQVVVIPNIQNPEPAVYQLKDPRSQDSTLCLFTDFDSQINVPKTMESGTFITDKCVLDMKAMDSKSNGAIAWSNQTSFTCQDIFKETNATYPSSDVPCDATLTEKSFETDMNLNFQNLLVIVLRILLLKVAGFNLLMTLRLWSS
modifications: CER31_T2A_HPV16_E7_TCR tandem cassette
B2: CER29−HPV16 E7 TCR: tandem expression cassette: CER29, T2A peptide, HPV16 E7 specific TCR; SEQ ID NO:169 (protein)
chain: MSKGLLLLWLVTELWWLYLTPAASEDTIIGFLGQPVTLPCHYLSWSQSRNSMCWGKGSCPNSKCNAELLRTDGTRIISRKSTKYTLLGKVQFGEVSLTISNTNRGDSGVYCCRIEVPGWFNDVKKNVRLELRRATTTKKPTTTTRPTTTPYVTTTTPELLPTTVMTTSVLPTTTPPQTLATTAFSTAVTTCPSTTPGSFSQETTKGSAFTTESETLPASNHSQRSMMTISTDIAVLRPTGSNPGILPSTSQLTTQKTTLTTSESLQKTTKSHQINSRQTILIIACCVGFVLMVLLFLAFLMSLLNCENSCGSSQSESDCCVAMASSCSAVTKDDSVGGTASTGNLSSSFMEEIQGYDVEFDPPLESKYECPICLMALREAVQTPCGHRFCKACIIKSIRDAGHKCPVDNEILLENQLFPDNFAKREILSLMVKCPNEGCLHKMELRHLEDHQAHCEFALMDCPQCQRPFQKFHINIHILKDCPRRQVSCDNCAASMAFEDKEIHDQNCPLANVICEYCNTILIREQMPNHYDLDCPTAPIPCTFSTFGCHEKMQRNHLARHLQENTQSHMRMLALEGGGEGRGSLLTCGDVEENPGPMAPGLLCWALLCLLGAGLVDAGVTQSPTHLIKTRGQQVTLRCSPKSGHDTVSWYQQALGQGPQFIFQYYEEEERQRGNFPDRFSGHQFPNYSSELNVNALLLGDSALYLCASSLGWRGGRYNEQFFGPGTRLTVLEDLRNVTPPKVSLFEPSKAEIANKQKATLVCLARGFFPDHVELSWWVNGKEVHSGVCTDPQAYKESNYSYCLSSRLRVSATFWHNPRNHFRCQVQFHGLSEEDKWPEGSPKPVTQNISAEAWGRADCGITSASYQQGVLSATILYEILLGKATLYAVLVSTLVVMAMVKRKNSRAKRSGSGATNFSLLKQAGDVEENPGPMWGVFLLYVSMKMGGTTGQNIDQPTEMTATEGAIVQINCTYQTSGFNGLFWYQQHAGEAPTFLSYNVLDGLEEKGRFSSFLSRSKGYSYLLLKELQMKDSASYLCASVDGNNRLAFGKGNQVVVIPNIQNPEPAVYQLKDPRSQDSTLCLFTDFDSQINVPKTMESGTFITDKCVLDMKAMDSKSNGAIAWSNQTSFTCQDIFKETNATYPSSDVPCDATLTEKSFETDMNLNFQNLLVIVLRILLLKVAGFNLLMTLRLWSS
modifications: CER29_T2A_HPV16_E7_TCR tandem cassette
B3: CER112: Tim4 binding and transmembrane domains, truncated Traf6 primary and NFAM1 secondary signaling domains; SEQ ID NO:128 (protein)
chain: MSKGLLLLWLVTELWWLYLTPAASEDTIIGFLGQPVTLPCHYLSWSQSRNSMCWGKGSCPNSKCNAELLRTDGTRIISRKSTKYTLLGKVQFGEVSLTISNTNRGDSGVYCCRIEVPGWFNDVKKNVRLELRRATTTKKPTTTTRPTTTPYVTTTTPELLPTTVMTTSVLPTTTPPQTLATTAFSTAVTTCPSTTPGSFSQETTKGSAFTTESETLPASNHSQRSMMTISTDIAVLRPTGSNPGILPSTSQLTTQKTTLTTSESLQKTTKSHQINSRQTILIIACCVGFVLMVLLFLAFLMSLLNCENSCGSSQSESDCCVAMASSCSAVTKDDSVGGTASTGNLSSSFMEEIQGYDVEFDPPLESKYECPICLMALREAVQTPCGHRFCKACIIKSIRDAGHKCPVDNEILLENQLFPDNFAKREILSLMVKCPNEGCLHKMELRHLEDHQAHCEFALMDCPQCQRPFQKFHINIHILKDCPRRQVSCDNCAASMAFEDKEIHDQNCPLANVICEYCNTILIREQMPNHYDLDCPTAPIPCTFSTFGCHEKMQRNHLARHLQENTQSHMRMLALWNKKRMRGPGKDPTRKCPDPRSASSPKQHPSESVYTALQRRETEVYACIENEDGSSPTAKQSPLSQERPHRFEDDGELNLVYENL
modifications: CER112 chimeric engulfment receptor
B4: CER120: Tim4 binding and transmembrane domains, TLR1 primary and DAP12 secondary signaling domains; SEQ ID NO:147 (protein)
chain: MSKGLLLLWLVTELWWLYLTPAASEDTIIGFLGQPVTLPCHYLSWSQSRNSMCWGKGSCPNSKCNAELLRTDGTRIISRKSTKYTLLGKVQFGEVSLTISNTNRGDSGVYCCRIEVPGWFNDVKKNVRLELRRATTTKKPTTTTRPTTTPYVTTTTPELLPTTVMTTSVLPTTTPPQTLATTAFSTAVTTCPSTTPGSFSQETTKGSAFTTESETLPASNHSQRSMMTISTDIAVLRPTGSNPGILPSTSQLTTQKTTLTTSESLQKTTKSHQINSRQTILIIACCVGFVLMVLLFLAFLSYLDLPWYLRMVCQWTQTRRRARNIPLEELQRNLQFHAFISYSGHDSFWVKNELLPNLEKEGMQICLHERNFVPGKSIVENIITCIEKSYKSIFVLSPNFVQSEWCHYELYFAHHNLFHEGSNSLILILLEPIPQYSIPSSYHKLKSLMARRTYLEWPKEKSKRGLFWANLRAAINIKLTEQAKKYFLGRLVPRGRGAAEAATRKQRITETESPYQELQGQRSDVYSDLNTQRPYYK
modifications: CER120 protein
B5: CER110: Tim4 binding and transmembrane domains, truncated Traf6 primary and DAP12 secondary signaling domains; SEQ ID NO:125 (protein)
chain: MSKGLLLLWLVTELWWLYLTPAASEDTIIGFLGQPVTLPCHYLSWSQSRNSMCWGKGSCPNSKCNAELLRTDGTRIISRKSTKYTLLGKVQFGEVSLTISNTNRGDSGVYCCRIEVPGWFNDVKKNVRLELRRATTTKKPTTTTRPTTTPYVTTTTPELLPTTVMTTSVLPTTTPPQTLATTAFSTAVTTCPSTTPGSFSQETTKGSAFTTESETLPASNHSQRSMMTISTDIAVLRPTGSNPGILPSTSQLTTQKTTLTTSESLQKTTKSHQINSRQTILIIACCVGFVLMVLLFLAFLMSLLNCENSCGSSQSESDCCVAMASSCSAVTKDDSVGGTASTGNLSSSFMEEIQGYDVEFDPPLESKYECPICLMALREAVQTPCGHRFCKACIIKSIRDAGHKCPVDNEILLENQLFPDNFAKREILSLMVKCPNEGCLHKMELRHLEDHQAHCEFALMDCPQCQRPFQKFHINIHILKDCPRRQVSCDNCAASMAFEDKEIHDQNCPLANVICEYCNTILIREQMPNHYDLDCPTAPIPCTFSTFGCHEKMQRNHLARHLQENTQSHMRMLAYFLGRLVPRGRGAAEAATRKQRITETESPYQELQGQRSDVYSDLNTQRPYYK
modifications: CER110 chimeric engulfment receptor

Columns and labels:
[1] = system: SCC152 cells; assay: Phagocytic activity of tandem expression cassette transduced CD8+ T cells; assay type: cell-based, human; conditions: for phagocytosis of SCC152 cells: CD8+ T cells, 6 hours, 1:1 ratio; for dependence of engulfment of SCC152 cells on Racl: Racl inhibitor NSC23766 (50 μM), data not shown
Protocol: Phagocytic activity of tandem expression cassette transduced CD8+ T cells was detected by co-culturing tandem expression cassette transduced CD8+ T cells with SCC152 cells for 6 hours at a 1:1 ratio. Phagocytic events were visualized and quantified using KEYENCE BZ-X710 fluorescence microscope, 20X objective and hybrid capture software.

[2] = system: H1975 lung adenocarcinoma cells; assay: LDH assay, H1975 cells, 48 hours co-culture with 1 μM Osimeritinib; assay type: cell-based; conditions: E:T 1:1, 48 hours, CD4+ T cells
Source text: CER30 comprises a Tim4 binding domain, Tim4 transmembrane domain, and an engulfment signaling domain comprising a primary engulfment signaling domain comprising a TRAF2 signaling domain. CER30 has a polypeptide sequence as set forth in SEQ ID NO:96. CER110 has a polypeptide sequence of SEQ ID NO:125 and comprises a Tim4 binding domain, Tim4 transmembrane domain, and an engulfment signaling domain comprising a primary engulfment signaling domain comprising a TRAF6 signaling domain and a secondary engulfment signaling domain comprising a DAP12 signaling domain. CER112 has a polypeptide sequence of SEQ ID NO:128 and comprises a Tim4 binding domain, Tim4 transmembrane domain, and an engulfment signaling domain comprising a primary engulfment signaling domain comprising a TRAF6 signaling domain and a secondary engulfment signaling domain comprising a NFAM1 signaling domain. CER127 has a polypeptide sequence of SEQ ID NO:175 and comprises a Tim4 binding domain, Tim4 transmembrane domain, and an engulfment signaling domain comprising a primary engulfment signaling domain comprising a TRAF2 signaling domain and a secondary engulfment signaling domain comprising a TLR2 signaling domain. H1975 cells are more resistant to EGFR inhibitors, so Osimeritinib was used at slightly higher concentration. H1975 lung adenocarcinoma cells harboring an EGFR mutation were co-cultured with CER-expressing or mock-transduced (vector only) CD4+ T cells with 1 μM of Osimeritinib. After 48 hours of co-culture at a 1:1 effector:target cell ratio, T cells were washed away, and the number of viable H1975 cells was quantified using a calorimetric LDH assay (FIG. 57). Cell viability experiments were performed in triplicate and presented as % of control.

Molecule | phagocytosis of SCC152 cells [1] | dependence of engulfment of SCC152 cells on Racl [1] | killing of H1975 cells (LDH) [2]
B1 | capable of phagocytosing SCC152 cells | Racl-dependent manner | –
B2 | capable of phagocytosing SCC152 cells | Racl-dependent manner | –
B3 | – | – | synergistic killing of H1975 lung adenocarcinoma cells upon EGFR inhibition
B4 | – | – | synergistic killing of H1975 lung adenocarcinoma cells upon EGFR inhibition
B5 | – | – | synergistic killing of H1975 lung adenocarcinoma cells upon EGFR inhibition
